We go through 13 proteins from US20250027068.

Substitutions are numbered along the chain they refer to.

Sequences and labels used below:
B1: PRT-622 (protein)
chain: MQITSVWTKGVTPLTPEQFRYNNEDVIHAPYLAHQGWYDITKAFDGKDNLLCGAATAGNMLHWWFDQNKTEIEAYLSKHPEKQKIIFNNQELFDLKAAIDTKDSQTNSQLFNYFRDKAFPNLSARQLGVMPDLVLDMFINGYYLNVFKTQSTDVNRPYQDKDKRGGIFDAVFTRGDQTTLLTARHDLKNKTLKEISDIIKQELQSGRALALSHTYANVSISHVINLWGADFNSEGNLIAIYVTDSDANASIGMKKYFVGINAHGHVAISAKKIEGENIGAQVLGLFTLSSGKDIWQKLSLEHHHHHH
B2: PRT-550 (protein)
chain: MANQEIRYSEETPKTITSIWTKGVTPPTDFIKNEDVLHAPYIANQGWYDITKTFNGKDDLLCGAATAGNMLHWWFDQNKEEIENYLKKHPEKQKINFNGEQMFDVKEAIDTKDSQTDSKLFEYFKDKAFPYLSTKHLGVFPDHVIDMFINGYRLSLTNHGPTPVKRGTKDPRGGIFDAVFTRGDQSKLLTARHDFKEKTLNEISDLIKQELTEGKALGLSHTYANVRINHVINLWGADFNSEGNLEAIYVTDSDSNASIGMKKYYVGVNAAGKVAISAKEIEGDNIGAQVLGLFTLSTGQDIWNQTNLEHHHHHH
B3: PRT-668 (protein)
chain: MQITSVWTKGVTPLTPEQFRYNNYDVFHAPYLAGQGWYDITKAFDGKDNLLCGAATAGNMLHWWFDQNKTEIEAYLSKYPEKQKIIFNNQELFDLRKAINTKDSQTNSELFNYFRDKAFPNLSARQLGVMPDLVLDMFINGYYLNVFKTQSTDVNRPYQDKDKRGGIFDAVFNRGDQTKLLTARHDLKNKGLNDISTLIKQELSSGRALALSHTTANVSISHVINLWGADFNAEGNLEAIYVTDSDDDSNIGMKKYKVGINASGHVAISAKKIEGENIGAQVLGLFTLSSGKDIWQKLSLEHHHHHH
B4: PRT-655 (protein)
chain: MQITSVWTKGVTPLTPEQFRYNNEDVIHAPYLAHQGWYDITKAFDGKDNLLCGAATAGNMLHWWFDQNKTEIEAYLSKHPEKQKIIFNNQELFDLKAAIDTKDSQTNSQLFNYFRDKAFPNLSARQLGVMPDLVLDMFINGYYLNVFKTQSTDVNRPYQDKDKRGGIFDAVFTRGDQTTLLTARHDLKNKGLNDISTIIKQELTEGRALALSHKTGNGGSSHVINLWGADFNAEGNLEAIYVTDSDANASIGMKKYFVGINAHGHVAISAKKIEGEDVGAQVLGLFTLSSGKDIWQKLSLEHHHHHH
B5: PRT-627 (protein)
chain: MQITSVWTKGVTPLTPEQFRYNNEDVIHAPYLAHQGWYDITKAFDGKDNLLCGAATAGNMLHWWFDQNKEEIEAYLKKYGETQKIIFNNQELFDLKAAIDTKDSQTNSQLFNYFRDKAFPNLSARQLGVMPDLVLDMFINGYYLNVFKTQSTDVNRPYQDKDKRGGIFDAVFTRGDQTTLLTARHDLKNKGLNDISTIIKQELTEGRALALSHTYANVSISHVINLWGADFNAEGNLEAIYVTDSDANASIGMKKYFVGINAHGHVAISAKKIEGENIGAQVLGLFTLSSGKDIWQKLSLEHHHHHH
B6: PRT-639 (protein)
chain: B5 chain with A43T, D45N, N49D, E70T, K77S, Y79H, G80P, T82K, N248D
B7: PRT-612 (protein)
chain: B5 chain with E70T, K77S, Y79H, G80P, T82K, K96R, D100N, T101S
B8: PRT-607 (protein)
chain: B5 chain with K9Y, T12K, A33E, E70T, K77S, Y79H, G80P, T82K
B9: PRT-606 (protein)
chain: B5 chain with E70T, K77S, G80P, E81D, T82K, D293E
B10: PRT-666 (protein)
chain: MQITSVWTKGVTPPTPEQFRNNNEDVFHAPYLANQGWYDITKTFNGKDDLLCGAATAGNMLHWWFDQNKTEIEAYLKKHPEKQKIIFNNQELFDLKKAIDTKDSQTNSQLFNYFRDKAFPNLSARQLGVMPDLVLDMFINGYYLNVTKTQSTDVNRPYQDKDKRGGIFDAVFTRGDQTTLLTSRHDLKNKGLNEISDLIKQELTEGKALALSHTYANVSINHVINLWGADFNAEGNLEAIYVTDSDSNASIGMKKYFVGVNASGKVAISAKKIEGENIGAQVLGLFTLSSGKDIWQKLSLEHHHHHH
B11: PRT-565 (protein)
chain: MANQEIRYSEATPSHITSVWTKGVTPPTQFIQNEDVLHAPYIANQGWYDITKTFNGKDDLLCGAATAGNMLHWWFDQNKEQIENYLKKHPEKQKINFNGEQMFDVKEAIDTKDSQTDSALFSYFKDKAFPYLSTKHLGVFPDHVIDMFINGYRLSLTNHGPTPVKRQTKDPRGGIFDAVFTRGDQSKLLTSRHDFKEKTLNEISQLIKQELTEGKALGLSHTYANVRINHVINLWGADFNAEGNLEAIYVTDSDSNASIGMKKYYVGVNSAGKVAISAKEIEGDNIGAQVLGLFTLSTGQDIWQQTNLEHHHHHH
B12: PRT-671 (protein)
chain: MQITTVWTKGVTPPTPEQFRNNNEDVFHAPYLPHQGWYDITKAFDGKDNLLCGAATAGNMLHWWFDQNKEEIEAYLKKYPEKQKIIFNNQELFDLRKAINTKDSQTNSQLFNYFRDKAFPNLSARQLGVMPDHVLDMFINGYYLNVFKTQSTDVNRPYQTRDKRGGIFDAVFNRGDQTTLLTERHDLYNKGLDDISTLIKQELSSGKALGLSHTYANVSISHVINLWGADFNAEGNLEAIYVTDSDDDASIGMKKYYVGKNASGHVRISAKKIEGENIGAQVLGLFTLSTGKDIWQKLSLEHHHHHH
B13: PRT-65 (protein)
chain: MANQEIRYSEVTPYHVTSVWTKGVTPPANFTQGEDVFHAPYVANQGWYDITKTFNGKDDLLCGAATAGNMLHWWFDQNKDQIKRYLEEHPEKQKINFNGEQMFDVKEAIDTKNHQLDSKLFEYFKEKAFPYLSTKHLGVFPDLVIDMFINGYRLSLTNHGPTPVKEGSKDPRGGIFDAVFTRGDQSKLLTSRHDFKEKNLKEISDLIKKELTEGKALGLSHTYANVRINHVINLWGADFDSNGNLKAIYVTDSDSNASIGMKKYFVGVNSAGKVAISAKEIKEDNIGAQVLGLFTLSTGQDSWNQTN

This data set deals with pooled human IgG.
As to B1, the Enzyme Activity Endpoint Assay (purified): Fab′2 was 823 ng/µL, the Enzyme Activity Endpoint Assay (purified): Fc came out at 423 ng/µL, the Enzyme Activity Endpoint Assay (purified): IgG was 0 ng/µL and the Enzyme Activity Endpoint Assay (purified): scIgG amounted to 0 ng/µL.

Regarding B2, the Enzyme Activity Endpoint Assay (purified): Fab′2 worked out at 891 ng/µL, the Enzyme Activity Endpoint Assay (purified): Fc was determined as 389 ng/µL, the Enzyme Activity Endpoint Assay (purified): IgG worked out at 0 ng/µL and the Enzyme Activity Endpoint Assay (purified): scIgG was determined as 0 ng/µL.

The protein B3 showed an Enzyme Activity Endpoint Assay (purified): Fab′2 of 563 ng/µL, an Enzyme Activity Endpoint Assay (purified): Fc of 0 ng/µL, an Enzyme Activity Endpoint Assay (purified): IgG of 1070 ng/µL and an Enzyme Activity Endpoint Assay (purified): scIgG of 14 ng/µL.

B4 displayed an Enzyme Activity Endpoint Assay (purified): Fab′2 of 471 ng/µL, an Enzyme Activity Endpoint Assay (purified): Fc of 0 ng/µL, an Enzyme Activity Endpoint Assay (purified): IgG of 1380 ng/µL and an Enzyme Activity Endpoint Assay (purified): scIgG of 15 ng/µL.

The protein B5 had an Enzyme Activity Endpoint Assay (purified): Fab′2 of 767 ng/µL, an Enzyme Activity Endpoint Assay (purified): Fc of 415 ng/µL, an Enzyme Activity Endpoint Assay (purified): IgG of 124 ng/µL and an Enzyme Activity Endpoint Assay (purified): scIgG of 187 ng/µL.

B6 had an Enzyme Activity Endpoint Assay (purified): Fab′2 of 788 ng/µL, an Enzyme Activity Endpoint Assay (purified): Fc of 450 ng/µL, an Enzyme Activity Endpoint Assay (purified): IgG of 0 ng/µL and an Enzyme Activity Endpoint Assay (purified): scIgG of 0 ng/µL.

On to B7, for which the Enzyme Activity Endpoint Assay (purified): Fab′2 is 986 ng/µL, the Enzyme Activity Endpoint Assay (purified): Fc amounted to 533 ng/µL, the Enzyme Activity Endpoint Assay (purified): IgG was 0 ng/µL and the Enzyme Activity Endpoint Assay (purified): scIgG came out at 0 ng/µL.

B8 yielded an Enzyme Activity Endpoint Assay (purified): Fab′2 of 779 ng/µL, an Enzyme Activity Endpoint Assay (purified): Fc of 470 ng/µL, an Enzyme Activity Endpoint Assay (purified): IgG of 0 ng/µL and an Enzyme Activity Endpoint Assay (purified): scIgG of 0 ng/µL.

B9 returned an Enzyme Activity Endpoint Assay (purified): Fab′2 of 737 ng/µL, an Enzyme Activity Endpoint Assay (purified): Fc of 406 ng/µL, an Enzyme Activity Endpoint Assay (purified): IgG of 0 ng/µL and an Enzyme Activity Endpoint Assay (purified): scIgG of 0 ng/µL.

As to B10, the Enzyme Activity Endpoint Assay (purified): Fab′2 came to 897 ng/µL, the Enzyme Activity Endpoint Assay (purified): Fc was found to be 132 ng/µL, the Enzyme Activity Endpoint Assay (purified): IgG came to 66 ng/µL and the Enzyme Activity Endpoint Assay (purified): scIgG was 0 ng/µL.

B11 yielded an Enzyme Activity Endpoint Assay (purified): Fab′2 of 783 ng/µL, an Enzyme Activity Endpoint Assay (purified): Fc of 471 ng/µL, an Enzyme Activity Endpoint Assay (purified): IgG of 0 ng/µL and an Enzyme Activity Endpoint Assay (purified): scIgG of 0 ng/µL.

The protein B12 yielded an Enzyme Activity Endpoint Assay (purified): Fab′2 of 97 ng/µL, an Enzyme Activity Endpoint Assay (purified): Fc of 294 ng/µL, an Enzyme Activity Endpoint Assay (purified): IgG of 244 ng/µL and an Enzyme Activity Endpoint Assay (purified): scIgG of 864 ng/µL.

On to B13, for which the Enzyme Activity Endpoint Assay (purified): Fab′2 was determined as 35 ng/µL, the Enzyme Activity Endpoint Assay (purified): Fc is 100 ng/µL, the Enzyme Activity Endpoint Assay (purified): IgG amounted to 26 ng/µL and the Enzyme Activity Endpoint Assay (purified): scIgG came to 34 ng/µL.
